Experiment: yeast display, Sf9 membrane polyspecificity reagent, FACS + sequencing; frameworks hold sequencing errors
Summary of the method: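 Galactose induction of a Saccharomyces cerevisiae BJ5465 synthetic nanobody display library ran 36–48 hours. The cells were then stained for 1 hour at 4 °C with 10% biotinylated, detergent-solubilized Sf9 membrane reagent, pulled down on streptavidin microbeads and FACS-sorted into low and high (top ~1%) gates on expression and reagent-binding fluorescence. Labels for polyreactivity follow the gate of origin.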

| Sequence | polyreactivity (PSR sort gate) |
| --- | --- |
| QVQLVESGGGLVQAGGSLRLSCAASGSIFVNNAMGWYRQAPGKERELVAAISSRGGSTYYADSVKGRFTISRDNAKNTVYLQMYSLKPEDTAVYYCAAEYDGPYYSFYPEQRYYWGQGTQVTVSS | low polyreactivity |
| QVQLVESGGGLVQAGGSLRLSCAASGRIFGYNAMGWYRQAPGKEREFVAAITYRGGSTYYADSVKGRFTISRDNAKTTVYLEMNSLKPEDTAVYYCASRVTQYPKYWGDYWGQGTQVTVSS | high polyreactivity |
| QVQLVESWGGLVQAGGSLRLSCAASGITFTVYAMGWYRQPPGKERELVAAITRGTSTYADSVKGRFTISRDNAKNTVYLQMNSLKPEDTAVYYCAARSSPWYTRYRSSELFDYWGQGTQVTVSS | high polyreactivity |
| QVQLVESGGGLVQAAGSLRLSCAASGRTLGYYAMGWYRPAPGKERELVAAITRGGSTNYADSVKGRFTISRDNAKNTVYLQMNSLKPEDTAVYYCARRGGYFWLKGDYWGQGTQVTVSS | high polyreactivity |
| QVQLLESGGGLVQAGGSLRLTCAASGRTFQYNAMGWYRQAPGKERELVGAISSTGGSTYYADSVKGRFTISRDNAKNTVYLQMNSLKPEDTAVYYCARQGRYTRGDYWGQGTQVTVSS | high polyreactivity |
| QVQLVESGGGLVQAGGSLRLSCAASGIIFVINAMGWYRQAPGKERELVATITGSGTTNYADSVKGRFTISRDNAKNTVYLQMNSLKPEDTAVYYCARDDTEYARTGAYDYWGQGTQVTVSS | low polyreactivity |
| QVPVVASGGGFVQAGGRLRLSCAASGRTFFYNAMGWYRQAPGKERESTYYADSVKGRFTISRDNAKNTVYLQMNSLKPEDTAVYYFAAATAYVAYEGDKGDYWGQGTQVTVSA | low polyreactivity |
| QGQLVESGGGLVQAGGSLRLSCAASGSIFNTYAMGWYRQAPGKEREFVASISRSGGSTRYADSVKGRFTISRDNAKNTVYLQMNSLKPEDTEVYYSAARVPRGHVTYDSWGQGTKVTVSS | high polyreactivity |
| QVQLVESGGGLVQAGGSLRLSCAASGSIFLFYALGWSRQAPGKERELVATINWSGCTTYYADSVKGRFTISRDNAKNTVYFQMNSLKPEDNAFYYCAAYSVYGRYGRTFYYWGQGTQVTVSS | high polyreactivity |
| QVQLVESGGVLVQSGGSLRLSCAASGSTFAYYAMGWYRQAPGKERELVAPISWSGGSTYYADSVKVRFTISRDNAKNTVYLQMNSLNPEDTAVYYCNKRNVLDYDYWGQGTQVTVSS | low polyreactivity |
| QVQLVESGGGLVQAGGSLRLICAASGRISAFNAMGWYRQAPGKERELVAAINVSGGNTYYADSVKGRFTISRDNAKNTVYLQMNSMKPEDTAVYYCAAERRRWGLDYYYWGQGTQVTVSS | high polyreactivity |
| QVQLVESGGGLVQAGGSLRLSCAASGYTIRANAMGWYRQAPGKERELVAAISRSGGSTYYADSVKGRFTISRDNAKNTVYLQMNSLKPEDTAVYYCNTRQQYQFNYWGQGTQVTVSS | high polyreactivity |
| QVQLVESGGGLVQAGGSLRLSCAASGFNFQRYAMGWYRQAPGKERELVAAISVRGTRTYYADSVKGRFTISRDKAKNTVYFQMYSLKPVDTAVYYCNADWERDVQDEYWGQGTHVTVSS | high polyreactivity |
| QVQLVESGGGLVQAGGSLRLSCAASGSIFYANAMGWYRQAPGKERELVAAISWSGGRTYYADSVKGRFTISRDNAKNTVYLQMNSLKPEDTAVYYCNVLPLYLEYDYWGQGTQVTVSS | high polyreactivity |
| QVQRLESGGGLVKAGGSLRLSCSASGIILPYYVMGWYRQAPGKEREFVADITWSGGSTYYADSVKGRFTISRDNAKNTVYLQMNSLKPEDTAVYYCAAEGPWYYFFDMDYWGQGTQVTVSS | high polyreactivity |
| QVQLVESGGGLVQAGGSLRLSCAAYGRTFRKNAMGWYRQAPVKERELVASMSKNGAGTYYADSVKGRFTISRDTAKNTVYLQMNSLKPEDTAVYYCAKLPNLPGDYWGQGTQVTVSS | low polyreactivity |
| QVQLVESGGGLVQAGGSLRLSCAASGRIFIPYAMGWYRLAPGKERELVAAISSSAGSSYYADSVKGRFTISRDTAKNTVYLQMKSLKPEDTAVYYCAARLYWWYAFETYSSLFEYDYWGQGTQVTVSS | low polyreactivity |
| QVQLVESGGGLVQAGGSLRLSCAASGSTFASYAMGWYRQAPGKERELVAAIRWRGGTTYYADSVKGRFTISRDNAKNTVNLQMNSLKPEDTAVYYCNADRYYLYYFWGQGTQVTVSS | low polyreactivity |
| QVQLVETGGGLVQAGGSLRLSCAASGFIFGYNARGWYRKAPGQVRELVAAISSGGRTYYADSVKGRFTISRDNAKHTVYLQMNSLKPQDTAVYYCSVDPHLYALRGAVYYWGQGTQVTVSS | low polyreactivity |
| QVQHVESGGGLVQAGGSLRLSCAASGGIYYQNAMGWYRQAPGKERELVAAISGRGGRTYYADSVKGRFTISRDNAKNTVYLQMNSLKPEDTAVYYCNADQATFSLYHEMDYWGQGTQVTVSS | low polyreactivity |
| QVQLVESGGGLVQAGGSLRLSCAASGRIFYPNGMGWYRQAPGKERELVAAITGSGGSTYYADSVKGRFTISRDNAKNTVYLQMNSLIPEDTAVYYCAATWRYYLYPLGPHEFDYWGQGTQVTVSS | low polyreactivity |
| QVQLVESGGGLVQAGGSLRLSCAASGRIFYHNVMGWYRQAPGKERELVAGIRSRGGSTSYADSVKGRFTISRDNAKNTVYLQMNSLKPEDTAVYYCATDTTLWYVLYDYWGQGTQVTVSS | low polyreactivity |

| Sequence | polyreactivity (PSR sort gate) |
| --- | --- |
| QVQLVESGGGLVQAGGSLRLSCAASGFTFKAYAMGWYRQAPGKERELVAAITYSGGSTYYADSVKGRFTISRDNAKNTVYLQMNSLKPEDTAVYYCNADSDLDLYWKMDYWGQGTQVTVSS | low polyreactivity |
| QVQLVESGGGLVQAGGSLRLSCAASGRIFGGYTMGWYRQAPGKERELVAAITGSGGRTYYADSVKGRFTISRDNAKNTVYLQMNSLKPEDTAVYYCNTVYRYRYYWGQGTQVTVSS | high polyreactivity |
| QVQLVESGGGLVLAGGSLRLSCAASGRTFGIYAMGWYRQAPGKEREIVAAISWSGTSTHYADSVKGRFTISRDNAKNTVYLQMNSLKPEDTAVYYCAAAKTGRGSGTTGFGYWGQGTQVTVSS | high polyreactivity |
| QVQLVESGGGLVQAGGSLRLSCAASGRTFTRYAMGWYRQAPGKERELVATITRGGSTNYADSVKGRFTISRDNAKNTVYLQMNSLKPEDTAVYYCAAGYFIRTRSRYRYDYWGQGTQVTVSS | high polyreactivity |
| QVQLVESGGGLVQAGGSLRLSCAASGSTFARYAMGWYRQAPGKERELVASITQSSGSTYYADSVKGRFTISRDNAKSTVYLQMNSLKPEDTAVYYCAKVISYGPVPDRYDYWGQGTQVTVSS | high polyreactivity |
| QVQLVESGGGLVQAGGSLRLSCAASGGTFDINDMGWYRQAPGKEREFVAAIDWSGGNTYYADSVKGRFIISRDNAKNTVYLQMNSLKPEDTAVYYCNARRKRSYDYWGQGTQVTVSS | low polyreactivity |
| QVQLVDSGGGLVQAGGSLRLSCAASGITFGRNTMGGYRQAPGKERELVAAIDSGGNTYADSVKGRFTISRDNAKNSVYLQMNSLKPEDTAVYYCAVDGGEFSSYGYWGQGTQVTVSW | low polyreactivity |
| QVQLVESGGGLVQAGGSLRLSCAASGRTFSVNAMGWYRQAPGKERELVAAITSGGSTYYADSVKGRFTISRDNAKNTVYLQMNSLKPEDTAVYYCNADLEPYDYWGQGTQVTVSS | low polyreactivity |
| QVQLVESGGGLVQAGGSLRLSCPASGFYAMGWYRQAPGKERELVAAIRGSGSSTYYADSVKGRFTISRDNAKNTVYLQMNSLKPEDTAVYYCAKQGYLVWSGWRWYDYWGQGTQVTVSS | low polyreactivity |
| QDQLVESGGGLVQAGGSLRLSCAASGRTFRSYVMGWYRQAPGKERELVAAITTSGGSTYYADSVKGRFTISRDNAKNTVYLQMNSLKPEDTAVYYCAAEYYTYTGHYDSWYGDDYWGQGTQVTVSS | high polyreactivity |
| QVQLVESGGGIVQAGGSLRLSCAASGYTFGRYAMGWYRQAPGKERELVAGIRWRGGSTYYADSVKGRFTISRDNAKNTVYLQMNSLKPEDTAVYYCAAYGYPVYYNYHYDYWGQVTQVTVSS | high polyreactivity |
| QVQLVESGGGLVKAGGSLRLSCAASGRIFNWYVMGWSRQAPGKERELVAAISWGSGNTYYADSVKGRFTISRDNAKNTVYLQMNSLKPEDTAVYYCNKVRSYRSWRGKYDYWGQGTQVTVSS | high polyreactivity |
| QVQLVESGGGLVQAGGSLRLSCAASGSIFGVNAMGWYRQAPGKERELVAAISRGTSTSYADSVKGRFTISRDNAKNTVYLQMNSLKPEDTAVYYCAAEVYWRGWWYGYWGQGTQVTVSS | high polyreactivity |
| QVQLVESGRGLVQAGGSLRLSCAASGSTFGPYAMGWYRQAPGKEREFVAGISKSTSSTYYADSVKGRFTISRDNAKNTVYLQMNSLKPEDTAVYYCAAQGGRNRGYRYYWGQGTQVTVSS | high polyreactivity |
| QVQLVESGGGLVQAGGSLRLSCAASGFTFVRYVMGWYRQAPGKERELVAAISRSGGSTHYADSVKGRFTISRDNAKNTVYLQMNSLKPEDTAVYYCNAYGYRHRGNGYWGQGTQVTVSS | high polyreactivity |
| QVQLVESGGGLVQAGGSLRLSCPASGRIFDYYAMGRYRQAPGKERELVARITSGGTTNYADSVKGRFTISRDNAKNTVFLQMNSLKPEDTAVYYCNAQDYCDPLQMDYWGQGTQVTVSS | low polyreactivity |
| QVQLVESGGGLVQAGGSLRLSCAASGRTFSYYAMGWYRQAPGKERELVAAISSGDSTYYADSVKGRFTFSRDNAMNTVYLQMNSLKPEDTAVYYCASYPSLYYTKYDYWGQGTQVTVSS | high polyreactivity |
| QVQLVESGGGLVHAGGRLRLSCAASGRTLAPYAMGWYRQAPGKERELVADIDRGGGSTYYADSVTGRFTISRDNAKNTVYLQMNSVKPEDTAVYYCYVDETGVLVAYTFDYWGQGTQVTVSS | low polyreactivity |
| KDQIVQSGAGLVQAGGSLRISCAPSGFIFTYNAMGWYIQAPGKEREIVATITWSGGSTYYADSVKGRFTISRDNAKNTVYLQMYSLNPEDTAVYYCAVDYSRHGYWSPVYVFNYWGQGTKVTVSS | low polyreactivity |
| QVQLVESGGGLVQAGGSLRLSCADSGSIFWGNAMGWYRQAPGKERELVAAITRGGSTYYADSVKGRFTISRDNAKNTVYLQMNSLTPEDTAVYYWAVLSRRYAAYDYWGLGTQVTVSS | high polyreactivity |
| QVQLVESGGGLVQAGGSLRLSCAASGRTFASYAMGWNRQPPGKERELFARISKSGGSTYYADSVKGRFTISRDNAKNTVYLQMNSLKPEDTAVYYCAAEYPFEIGYVYYSIDYDYWRQGTQVTVSS | low polyreactivity |
